Laboratory results as given in the DeepSol protein solubility set.

Assay: soluble on expression in E. coli; label from the status in PepcDB or PDB records

Sequence	soluble on expression in E. coli
MQPIPDVNQRIARISAHLHPPKSQMEESSALRRANCRAKGGAPGFKVAILGAAGGIGQPLAMLMKMNPLVSVLHLYDVVNAPGVTADISHMDTGAVVRGFLGQQQLEAALTGMDLIIVPAGVPRKPGMTRDDLFKINAGIVKTLCEGIAKCCPRAIVNLISNPVNSTVPIAAEVFKKAGTYDPKRLLGVTMLDVVRANTFVAEVLGLDPRDVDVPVVGGHAGVTILPLLSQVKPPSSFTQEEISYLTDRIQNGGTEVVEAKAGAGSATLSMAYAAVKFADACLRGLRGDAGVIECAFVSSQVTELPFFASKVRLGRNGIEEVYSLGPLNEYERIGLEKAKKELAGSIEKGVSFIRSHHHHHH	soluble
SLDSEKVKVLSIEEDNQAEILKELGLPANASYYRIKRVRYSEDTPFLVHITHLPKKLVKEPLSKDLTAYASVYERVRKDFSVDLFSLASVETNEIVFPEDAELLNLLQLSFREPAVKQVKHSYLADGSVAEYIISYKHWKYFKTKIEVEAE	soluble
MKSLPYTIALLFCGLIIVSMAAKGHSTDTDESVQKWEQLAWSKIQDEYKGASFSDYAYMGRTEVNDQQTKDVFRVTVRQKDDTFSVRAEVYFHPVTNHMISINVFRLMAGDPLEHHHHHH	soluble
MSLNKKIIFFDIDGTLLVHNGKESTIPYSTKEALKKLKEKGHNLFICSGRPIRFAIQEFQEMVDGYICCNGTYIVYNGKCIYNKLIDKDTLKYLIKEFCKLGISASFSGAYNGYSYNMSSEKIHQMNRFYKTENPYILDNWNIEEIEANNVDVFFKNNEHMEKCIKYLEHKLIFNTHKPYLSADVSFKNWDKSKGIEYLVKYMKRDMKDTMAFGDGKNDITMLKTVNIGIAMGNAVDEVKNKADMVTDSAADDGIYNALNKLHLIEGHHHHHH	soluble
MGSDKIHHHHHHMQKLTRINDFNEVLNSRKSVKVFDENYKIPREEMDEIITKATKAPSSVNMQPWRIAVVQSDEMKEKVKESFGFNSRQLTTSSAMLIIFGDLQNYEKAEQIYGDAVEQQLMTEDIKAQLLDWILPYYKNLSREGMKDIVNIDSSLMAMQLMLTAKAHGYDTNPIGGFDKENIADIIGYDSDRYVPVLAIAIGKKAQDAHDSVRLPIDDVREFL	not soluble
MGSDKIHHHHHHMSEQMFEGWNGAIVVTPETVKIIYGNQHSKGEGEKEITLESIQSIELKKPRFLAQGYIQLILEGSKKKKGALAAMGDEHSIMINDEAQYKQFEQAKELIELFQHEQKLVSEQNEKGEGWREDVFKGGNGTLVVTPETIKIIYSWLHTRGRGEKTINIRSISSIQLKEPAVVAGYIQFTFQGSIENQSRSSFSAIDDQNTIAISNKHQFEDFKRAKALIESYQNQLYAPQIQSSSTSGADELKKYKELLDDGIISEEEFNAKKKQILGI	not soluble
MLREVVHRFGESDFTFLSVLDSYALLDRIDPAAFVKDEQMPYWAEIWPAAVTLSRQIVETGELAGKSVLELGAGVGMASIAAARSGARVLCTDYSTEALRFVAYNAMKNRVPLDTARLDWRMVKGAEKFDAVIAADVLYERVNLLPIVTAIDALLAPGGAAYIADPRRRLADQFLELVHENGFEVAETRMFDAEGDQTVAVTIYKLQRLKALEHHHHHH	not soluble
MHKIRVIESTLGYPQKNRMESESYEGVQTYMDMKDGSLIAVQPNKDDLMSQILSPDNLNRAYLQVVRNKGVGGVDRMDFKQLLPYLHEHKSELIESIRIGRYKPNSVRRVDIAKDNGKKRLIGIPTVVDRLIQQAIVQVLSPIYERQFSPSSFGFRPDVVRMLEHHHHHH	not soluble
MPIPNNPGAGENAFDPVFVKDDDGYDLDSFMIPAHYKKYLTKVLVPNGVIKNRIEKLARDVMKEMGGHHIVALCVLKGGYKFFADLLDYIKALNRNSDRSIPMTVDFIRLKSYCNDQSTGDIKVIGGDDLSTLTGKNVLIVEDIIDTGKTMQTLLSLVRQYNPKMVKVACLFIKRTPLWNGFKADFVGFSIPDHFVVGYSLDYNEIFRDLDHCCLVNDEGKKKYKATSL	soluble
MSLKITAVEPFILHLPLTSESISDSTHSITHWGVVGAKITTSDGIEGYGFTGTHAHLPSDRLITSCISDCYAPLLLGEDASDHSRLWTKLARYPSLQWVGRAGITHLALAAVDVALWDIKAKKAGVPLWHYLGGARTAGVEAYNTDIGWLSFTLEDLLAGSARAVEEDGFTRLKIKVGHDDPNIDIARLTAVRERVDSAVRIAIDGNGKWDLPTCQRFCAAAKDLDIYWFEEPLWYDDVTSHARLARNTSIPIALGEQLYTVDAFRSFIDAGAVAYVQPDVTRLGGITEYIQVADLALAHRLPVVPHAGEMSQVHVHLSYWHPASTILEYIPWIKDHFEEPIHVRDGVYKRPEQPGASTTPLAESFTRYGKAVKEGHHHHHH	soluble
MTTDIRPLLVELFTEELPPKALQKLGQAFAEGVRATLARHHLLADGCAVEPFATPRRLAVRLSAVLAQAPEQAYAEKLMPVKVGLDANGQPTAALAKKLAAKGLEGLDPATLERESDGKQEYLVARGTAAGAQLAVGLQEGLDAAIDGLPIPKVMRYQLADGQTTVKFVRPAHGLVALFGADIVPIAALGLQAGRATQGHRFQSNGAIELATAQGYEADLAERGRVIASFEARRAEISRLLDEHAQRLGATLGDDPEVTALLDEVTALVEHPTVYVGQFEEQFLQVPQECLILTMRLNQKYFPLFDPASGKLTHRFLIVSNMQVADPANIVEGNQRVVRPRLADAQFFFETDRKTPLAARVEQLGSIVYHNKLSTQLERVERVRAIARGIATALGGDAAHCDRAALLAKADLGSNMVGEFPELQGIMGAYYAQGDGEPADVVTALRTQYRNRYDAPVDAATLTAATLFIAERIETLVGIWSIGLAPTGERDPFGLRRAALGLISAFEQLAAGGWLKVSEDGPLSLDGLLALAAQAFPDGKIGADTLAEVRAFIYERYRNQLIGEHDRNAVEAVIALAPPL	not soluble
MIIREQRVEKFNAGKAVYQSVSKTESLARTAKDRKICANLEEAIRRSGLKDGMTVSFHHAFRAGDCVVNMVMNKIAEMGFKNLTLASSSLIDSHYPLIEHIKNGVVTKIYSSGLRGQLADEISRGLLAEPVNIHSHGGRVHLIKAGELKIDVAFLGVPCCDKFGNANGFSGKSKCGSLGYARIDAEYADKVVLLTEQFDEYPLNPISIGQDNVDLIVQVDEVGDPEKIGGGATRMTTNPRELLIARKCAQVIFASGYFKDGFSLQTGTGGASLAVTRFLEDKMRREQITAGFALGGITSSIVALHEAGLIKKLIDVQSFDKDAAESLARNPNHIEVSANQYANYSSKGPSVECLDIVVLSALEIDTQFNVNVLTGSDGVIRGASGGHSDTAASAQVAIIVAPLVRGRIPTVVEQVITCVTPGENIDILVTDHGVAVNPKRLDLVDKLTAAGLELFTIEQLCARAYSITGKSKEIEFKDKPVAVVRYRDGSVIDTVYQIKELEHHHHHH	soluble
MGSDKIHHHHHHMIKRLKIKNFKSYRDSEFEFEKVSIVVGPNGSGKTNLVDAFSFLKQLIRPLSYPPYPFIRWGDYKNVVFMQDENLDISFEIDGEYKGKDYHYEISLNKLQIKKEIINFDSYSMERRGNVIRYENKEMTIPDNLSVFNLFFAQPFIIAYNLNFTLPPELLNFMTNFLNDVGVFRIVPQIAVSPVHFTFPEALDENGRGLVKVISNNLSRINETKQVYDFLVENNISLRPVFTEDGNIRLHFIEKSENNKELILLPASVPDGFIKMLTIIIAVYLLKMSTIIIDEIENSLHLKYIERLVDIMRYSDSQFIATTHSPLIIDFMDPFRNNNS	not soluble
MAHHHHHHMPLTDEIQLEQLAPTIKGDASWSTGPIYVVCDVGGTNARVGFARAAQHEGSGLHIIYVRFRVTKRDIRQLLEFFDEVLQHLKKNLPYRAGPFLRRVASGAVSVPGPLTNGQLAGPFSNLKGIARLADYPVELFPRGRSALLNDLEAGSYGVLALSNAGMLSDYFKVMWKGTQWDALSEGKPVGSTIGHGRCMVVAPGTGVGSSLIHYVGVSDSYVVLALECGCLSMSWCANEDSKYVQALAGYMASKARVKGLDSTVAPIWEAAANGSGLEFNYAYEKEGPKASAPLKSAPEVAKLAKAGSDPAAVAAMDRLYKNLIGLTAETTMQFLPLTCVLMGDSIVSNSFYFDNPENVKKLQARINEHTMERQLKFLSRTTFLRQVRSVNINLLGCLEFGSQLSNRADQLAPTKSNL	not soluble
MSLAKRIKIDNASSKFRRQSQKREQKVIRCSVLIVCEGTKTEPNYFEAFAEKQQGVIVYDIEVKGLGRGTKDVVEKAIDLKNKNNYDRVWAVFDRDEFPAKDFNEAIAMGQKNSIEVAWSNEAFELWYLYHFQNVITGVSRKDYEEKISTAVNASPKYKSKKKYRYAKKDPNNYKIMTTYGSMESALRYAEAKHLEYADSRYANQNPCTTIYQLVRQLLGRDEKLNAELIARIGENEGHHHHHH	soluble
MGSDKIHHHHHHMTTLDRKIDFTVILSVTKANPNGDPLNGNRPRQNYDGYGEISDVAIKRKIRNRLQDMGESIFVQSNDRNLDGYASLRDRAEANDTIKKLMKTKNASDQVAAEACATWMDVRAFGQVFAFKGDKAGGVSVGVRGPVSIHTATSVAPIDVTSMQITKSVNSESGKERGSDTMGMKHRVDHGVYVFNGSINTQLAEKTNFTQEDAEKFKLALVSLFENDASSARPEGSMEVHKVYWWEHDSKLGRFSSAKVHRAVSVQALTDEPKSFLDYEIKVDALEGFTPEILDGL	not soluble
MMNWKQLISAKRFGMEEFHEERQENRSEFQRDYDRLIFSAPFRRLQNKTQVFPLPGSIFVHNRLTHSLEVSCVGRSLGNDVAKAILERQPELESSFLPEIGSIVSAACLAHDLGNPPFGHSGERAISTFFSEGKGQRLQEKQPDGEQLSPMEWEDLTHFEGNANAFRILTHQFEGRRRGGFVLTYSTLASIVKYPFSSSLAGKKSKFGFFVSEEESYRKIATELGLIQLSEQPLKYARHPLVYLVEAADDICYQMMDIEDAHKLKIITTDETKELLMAFFSEDRQSRLRSTFQIVNDINEQIAYLRSSVIGLLVRECTRVFLEHEQEILAGTFEGALIKHIAEGPAAAYNHCAEISLKRIYRSQDVLDIELAGFRIISTLLELMVDAVTLPGKEKAYSELLTNRVSDQYNIKSPVLYERIQAVLDYISGMTDVFALDLYRKINGNSLPAV	not soluble
MGSDKIHHHHHHMHRVGFTTTIPLEIVLAAGMTPVDLNNVFITSPHATRMIEEAEVDGFPRSICGWIKGIYAAVVECGIHELIAVTEGDCSNTRALMEVLSLKGVETIPFAYPHDRDPAGLRFEIEKLMRRFGVGWDAVKLSRERLGRIRRKVKEIDRLTWDENRVSGQENHYFQVCTSDMNSDPDRFEAEVDAFLEKARQREPFRQRLRLAYIGVPPIMTDLYPFVETLDARVVFNETQRQFAMPFDTPDLVEQYRAYTYPYDIFHRLSDILMELERRKVDAVIHYVQSFCFRQIEDMIVRQKLPLPVLTLEGDKPGPLDARTRIRIEGFLEMLA	not soluble
TAVEPLALIRADGPTLPARGMHKPALCIIAQGRKEVQLAEERYIYDPLHYLVVSVTLPLAGQVIDASPDAPYLCVRLDIDPAEITQLISDAGPMEVASRRGDRGLYVDRIDASLLDAVLRLIHLLDSPRDIPMLAPLILREIFYRLLRSGQGQRL	not soluble
METPLVSIVSICWNRKDEICESLNNIRKIDYESLEIIVVDNGSTDGTVEKIEEDFKEVKLIKMPKNAGIEAYNVGFKSAAGEYIVILDDDSFPEKNSIKRMVKKFQKDDKLGMVAFDVRNYYNYDEVKKIDTEETSNDTAAESDEYIMAFNGAGAGVRTEVLKKAGFYPEEFFLYWNEQDTAFRILDMGYKIKFFADVIAYHKYSPKNRASWRAPFYYTRNAFFLVWKNYSTKAALKKTIELIYDCFYYSMEQKTNIYLKAMWNAFMNFNKIKGKRKVVDKYIEENLRIPLNVSFTFYKLEHHHHHH	not soluble
